Laboratory results taken from publication PMC4398322, “Snake neurotoxin α-bungarotoxin is an antagonist at native GABAA receptors” (Neuropharmacology, 2015).

Key:
[1] = tested on: Receptors containing α3/5/6 subunits and β1/2γ2; experiment: α-Bgtx-AF555 cell surface staining of transfected HEK-293 cells; type: binding, murine; conditions: 400 nM, 10 min RT; P > 0.05
Description: (§1) Murine GABAAR α1-6, β1-3, γ2 and δ cDNAs subcloned into pRK-5 and pEGFP-C1 have been described previously ([Mortensen et al., 2011]).
(§2) HEK-293 cells were maintained at 37 °C in a humidified 95% air/5% CO2 atmosphere in Dulbecco's modified Eagle's medium (DMEM) supplemented with 10% (v/v) fetal calf serum (FCS), penicillin-G and streptomycin (100 units/ml and 100 μg/ml), 2 mM L-glutamine. Cells were plated onto 22 mm glass coverslips (VWR), coated with poly-L-lysine (Sigma). All media components were from Life Technologies unless otherwise stated.
(§3) Cells were transfected with equimolar ratios of cDNAs encoding for α1–6, β1–3 and δ or γ2 GABAA receptor subunits along with eGFP using a calcium phosphate method ([Mortensen et al., 2011]) 15–45 min after plating.
(§4) Live transfected HEK-293 cells were studied 48 h after transfection and washed with Krebs to remove cell culture media and incubated in 400 nM α-Bgtx coupled with Alexa Fluor 555 (α-Bgtx-AF555; Life Technologies) for 10 min at room temperature (RT). Cells were washed and fixed in 4% paraformaldehyde (PFA; Sigma) for 10 min at RT. The cells were imaged immediately post-fixation in saline using a Zeiss LSM 510 Meta confocal microscope and an Achroplan x40 water DIC objective (NA 0.8) as described previously ([Hannan et al., 2012]). This involved choosing the optimal z-section and acquiring images as a mean of 4 scans in 16-bits using a 543 nm Helium–Neon laser and a 560 nm long-pass filter for α-Bgtx-AF555 and a 488 Argon laser with a 505–530 nm band-pass filter for eGFP.
(§5) Confocal images were analysed using ImageJ (version 1.410) as described previously ([Hannan et al., 2013]). For each cell the surface membrane was identified by drawing a region-of-interest (ROI) in the eGFP channel and this was transferred to the α-Bgtx-AF555 channel and the mean membrane fluorescence values were determined. Mean background fluorescence was determined from a region devoid of cells. This was subtracted from the mean membrane fluorescence providing a mean corrected fluorescence intensity value. These values, for different combinations of receptors and drugs, were graphically plotted using Origin.

[2] = biological target: T1, α1β1γ2 GABAAR (Mus musculus, UniProt P22723+P50571+P62812); experiment: as above; type: binding, murine; conditions: 400 nM α-Bgtx-AF555, 10 min RT; n = 6
T1 construct: expressed in transfected cells; host or cells: HEK-293
T1 sequence (P62812 28-455): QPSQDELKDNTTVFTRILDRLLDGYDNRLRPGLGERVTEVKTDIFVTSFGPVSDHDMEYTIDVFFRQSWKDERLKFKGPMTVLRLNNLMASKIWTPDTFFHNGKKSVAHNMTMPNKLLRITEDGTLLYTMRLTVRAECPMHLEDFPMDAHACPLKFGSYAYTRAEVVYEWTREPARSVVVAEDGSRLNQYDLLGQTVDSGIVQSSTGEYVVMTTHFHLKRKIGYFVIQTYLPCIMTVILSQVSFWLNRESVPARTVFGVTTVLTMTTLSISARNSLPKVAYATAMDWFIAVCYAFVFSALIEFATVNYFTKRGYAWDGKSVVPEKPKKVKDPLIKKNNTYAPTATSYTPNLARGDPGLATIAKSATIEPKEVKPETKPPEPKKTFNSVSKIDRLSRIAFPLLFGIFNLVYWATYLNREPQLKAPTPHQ
T1 sequence (P50571 26-474): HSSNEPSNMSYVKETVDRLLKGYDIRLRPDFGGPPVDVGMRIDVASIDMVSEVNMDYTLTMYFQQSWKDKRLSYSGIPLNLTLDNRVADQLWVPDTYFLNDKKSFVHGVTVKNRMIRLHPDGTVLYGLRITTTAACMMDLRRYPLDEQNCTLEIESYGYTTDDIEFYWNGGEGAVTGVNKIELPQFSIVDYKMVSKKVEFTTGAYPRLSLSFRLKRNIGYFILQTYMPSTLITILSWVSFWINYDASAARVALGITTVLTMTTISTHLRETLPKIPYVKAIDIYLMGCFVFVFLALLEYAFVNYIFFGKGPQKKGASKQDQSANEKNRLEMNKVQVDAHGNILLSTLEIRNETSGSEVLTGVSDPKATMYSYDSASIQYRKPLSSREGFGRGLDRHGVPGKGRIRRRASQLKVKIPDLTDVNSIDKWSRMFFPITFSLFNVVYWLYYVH
T1 sequence (P22723 39-474): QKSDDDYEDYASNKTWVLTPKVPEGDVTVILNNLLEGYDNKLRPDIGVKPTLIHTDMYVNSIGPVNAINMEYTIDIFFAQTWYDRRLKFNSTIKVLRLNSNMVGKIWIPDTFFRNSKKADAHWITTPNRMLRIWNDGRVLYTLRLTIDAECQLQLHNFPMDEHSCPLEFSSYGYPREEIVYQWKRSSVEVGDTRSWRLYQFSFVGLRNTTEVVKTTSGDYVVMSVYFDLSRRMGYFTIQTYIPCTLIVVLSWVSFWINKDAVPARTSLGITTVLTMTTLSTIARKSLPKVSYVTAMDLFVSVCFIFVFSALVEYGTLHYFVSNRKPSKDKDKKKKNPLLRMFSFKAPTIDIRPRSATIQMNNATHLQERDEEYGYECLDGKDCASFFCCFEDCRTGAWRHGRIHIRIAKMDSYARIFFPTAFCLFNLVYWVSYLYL
Description: as §1, §2, §3, §4, §5

[3] = biological target: T2, α1β2γ2 GABAAR (Mus musculus, UniProt P22723+P62812+P63137); experiment: as above; type: binding, murine; conditions: 400 nM α-Bgtx-AF555, 10 min RT; n = 6
T2 construct: expressed in transfected cells; host or cells: HEK-293
T2 sequence (P63137 25-512): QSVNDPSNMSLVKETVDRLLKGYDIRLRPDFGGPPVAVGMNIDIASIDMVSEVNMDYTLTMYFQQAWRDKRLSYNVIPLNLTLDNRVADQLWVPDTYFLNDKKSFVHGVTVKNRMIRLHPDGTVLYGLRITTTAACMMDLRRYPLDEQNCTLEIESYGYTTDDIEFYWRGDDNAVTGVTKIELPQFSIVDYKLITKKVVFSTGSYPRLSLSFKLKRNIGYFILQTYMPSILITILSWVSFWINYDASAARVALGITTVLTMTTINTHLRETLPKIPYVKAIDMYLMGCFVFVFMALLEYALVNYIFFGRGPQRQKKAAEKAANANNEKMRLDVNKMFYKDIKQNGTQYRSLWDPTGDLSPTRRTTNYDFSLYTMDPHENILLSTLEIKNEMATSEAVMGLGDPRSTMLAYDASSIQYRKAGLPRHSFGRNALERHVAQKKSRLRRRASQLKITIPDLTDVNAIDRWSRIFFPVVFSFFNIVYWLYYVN
T2 sequence (P22723 39-474): as the sequence (P22723 39-474) above
T2 sequence (P62812 28-455): as the sequence (P62812 28-455) above
Description: as §1, §2, §3, §4, §5

[4] = biological target: T3, α2β1γ2 GABAAR (Mus musculus, UniProt P22723+P26048+P50571); experiment: as above; type: binding, murine; conditions: 400 nM α-Bgtx-AF555, 10 min RT; n = 6
T3 construct: expressed in transfected cells; host or cells: HEK-293
T3 sequence (P22723 39-474): as the sequence (P22723 39-474) above
T3 sequence (P50571 26-474): as the sequence (P50571 26-474) above
T3 sequence (P26048 29-451): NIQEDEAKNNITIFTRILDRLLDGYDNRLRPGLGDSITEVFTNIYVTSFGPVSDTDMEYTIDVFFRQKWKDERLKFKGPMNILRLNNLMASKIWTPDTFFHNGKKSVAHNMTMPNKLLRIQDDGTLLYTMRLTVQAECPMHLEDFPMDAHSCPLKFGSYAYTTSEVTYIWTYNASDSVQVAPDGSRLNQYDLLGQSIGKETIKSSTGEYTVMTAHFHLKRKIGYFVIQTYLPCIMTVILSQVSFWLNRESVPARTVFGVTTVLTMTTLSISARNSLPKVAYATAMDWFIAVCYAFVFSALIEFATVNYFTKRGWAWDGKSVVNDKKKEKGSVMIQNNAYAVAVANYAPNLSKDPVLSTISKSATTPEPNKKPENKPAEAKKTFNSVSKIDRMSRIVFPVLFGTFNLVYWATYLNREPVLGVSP
Description: as §1, §2, §3, §4, §5

[5] = biological target: T4, α2β2γ2 GABAAR (Mus musculus, UniProt P22723+P26048+P63137); experiment: as above; type: binding, murine; conditions: 400 nM α-Bgtx-AF555, 10 min RT; n = 6
T4 construct: expressed in transfected cells; host or cells: HEK-293
T4 sequence (P63137 25-512): as the sequence (P63137 25-512) above
T4 sequence (P26048 29-451): as the sequence (P26048 29-451) above
T4 sequence (P22723 39-474): as the sequence (P22723 39-474) above
Description: as §1, §2, §3, §4, §5

[6] = biological target: T5, α4β1γ2 GABAAR (Mus musculus, UniProt P22723+P50571+Q9D6F4); experiment: as above; type: binding, murine; conditions: 400 nM α-Bgtx-AF555, 10 min RT; n = 6; not significant vs eGFP alone
T5 construct: expressed in transfected cells; host or cells: HEK-293
T5 sequence (P50571 26-474): as the sequence (P50571 26-474) above
T5 sequence (P22723 39-474): as the sequence (P22723 39-474) above
T5 sequence (Q9D6F4 36-552): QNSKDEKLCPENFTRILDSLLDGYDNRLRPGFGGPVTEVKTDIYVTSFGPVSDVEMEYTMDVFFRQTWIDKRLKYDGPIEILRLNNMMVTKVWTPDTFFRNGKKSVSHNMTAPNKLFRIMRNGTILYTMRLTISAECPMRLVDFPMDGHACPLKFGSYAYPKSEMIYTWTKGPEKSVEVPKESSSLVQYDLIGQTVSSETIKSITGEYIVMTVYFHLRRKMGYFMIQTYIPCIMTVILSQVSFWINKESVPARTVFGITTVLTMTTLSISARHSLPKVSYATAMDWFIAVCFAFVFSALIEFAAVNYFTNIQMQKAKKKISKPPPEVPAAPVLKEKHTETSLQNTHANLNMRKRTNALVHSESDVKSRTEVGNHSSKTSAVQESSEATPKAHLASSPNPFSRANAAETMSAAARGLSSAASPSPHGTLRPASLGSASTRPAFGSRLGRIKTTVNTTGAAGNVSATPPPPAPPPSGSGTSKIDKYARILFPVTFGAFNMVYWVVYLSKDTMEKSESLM
Description: as §1, §2, §3, §4, §5

[7] = biological target: T6, α4β2γ2 GABAAR (Mus musculus, UniProt P22723+P63137+Q9D6F4); experiment: as above; type: binding, murine; conditions: 400 nM α-Bgtx-AF555, 10 min RT; n = 6; not significant vs eGFP alone
T6 construct: expressed in transfected cells; host or cells: HEK-293
T6 sequence (P63137 25-512): as the sequence (P63137 25-512) above
T6 sequence (P22723 39-474): as the sequence (P22723 39-474) above
T6 sequence (Q9D6F4 36-552): as the sequence (Q9D6F4 36-552) above
Description: as §1, §2, §3, §4, §5

[8] = tested on: HEK-293 cells expressing only eGFP; experiment: α-Bgtx-AF555 cell surface staining of HEK-293 cells expressing only eGFP; type: binding; conditions: 400 nM α-Bgtx-AF555, 10 min RT, n = 6
Description: as §2, §3
Live transfected HEK-293 cells were studied 48 h after transfection and washed with Krebs to remove cell culture media and incubated in 400 nM α-Bgtx coupled with Alexa Fluor 555 (α-Bgtx-AF555; Life Technologies) for 10 min at room temperature (RT). […]
as §5, with “These values, for different combinations of receptors and drugs, were graphically plotted using Origin.” left out

[9] = biological target: T7, β1 homomers (Mus musculus, UniProt P50571); experiment: α-Bgtx-AF555 staining of HEK-293 cells expressing β homomers, with or without permeabilisation; type: binding, murine; conditions: 400 nM α-Bgtx-AF555, with or without permeabilisation
T7 construct: expressed in transfected cells; host or cells: HEK-293
T7 sequence (P50571 26-474): as the sequence (P50571 26-474) above
Description: as §1, §3, §4
(§6) In experiments using permeabilisation, cells were fixed in 4% PFA for 10 min at RT followed by washes (x3) in phosphate buffered saline (PBS; Sigma) and 0.1% triton-X100 (Sigma) was added for 10 min at RT in 10% (v/v) FCS. Cells were washed to remove the detergent and 400 nM α-Bgtx-AF555 was added for 10 min at RT to label intracellular receptors.
as §5

[10] = biological target: T8, β2 homomers (Mus musculus, UniProt P63137); experiment: as above; type: binding, murine; conditions: 400 nM α-Bgtx-AF555, with or without permeabilisation
T8 construct: expressed in transfected cells; host or cells: HEK-293
T8 sequence (P63137 25-512): as the sequence (P63137 25-512) above
Description: as §1, §3, §4, §6, §5

[11] = biological target: T9, β3 homomers (Mus musculus, UniProt P63080); experiment: as above; type: binding, murine; conditions: 400 nM α-Bgtx-AF555, with or without permeabilisation
T9 construct: expressed in transfected cells; host or cells: HEK-293
T9 sequence (P63080 26-473): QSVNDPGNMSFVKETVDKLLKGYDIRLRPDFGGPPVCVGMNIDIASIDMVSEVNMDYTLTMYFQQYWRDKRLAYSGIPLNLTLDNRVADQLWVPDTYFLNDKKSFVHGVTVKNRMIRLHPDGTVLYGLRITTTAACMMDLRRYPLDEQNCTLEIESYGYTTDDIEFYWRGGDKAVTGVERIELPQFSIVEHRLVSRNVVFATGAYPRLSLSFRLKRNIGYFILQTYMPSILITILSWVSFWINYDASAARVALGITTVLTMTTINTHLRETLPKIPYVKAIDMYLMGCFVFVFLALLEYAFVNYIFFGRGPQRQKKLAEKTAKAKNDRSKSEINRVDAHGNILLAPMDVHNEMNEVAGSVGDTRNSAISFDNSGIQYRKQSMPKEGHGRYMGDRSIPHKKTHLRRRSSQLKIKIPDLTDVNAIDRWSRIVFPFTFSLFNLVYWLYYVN
Description: as §1, §3, §4, §6, §5

[12] = tested on: E18 rat hippocampal cultured neurons; experiment: Live cell confocal microscopy of fluorescent α-Bgtx binding to cultured hippocampal neurons; conditions: 400 nM; untransfected neurons
Description: Dissociated hippocampal neurons were prepared from embryonic day 18 rat pups as described ([Hannan et al., 2012]). Briefly, hippocampi were dissected in ice-cold Hank's Balanced Salt Solution (HBSS) (Ca^2+/Mg^2+ free) before enzymatic dissociation in 0.1% (w/v) trypsin at 37 °C for 10 min followed by serial washes in pre-warmed HBSS to remove trypsin prior to trituration. Cells were mechanically dissociated using fire-polished glass Pasteur pipettes in plating medium composed of minimal essential medium (MEM) supplemented with 5% (v/v) fetal calf serum (FCS), 5% (v/v) horse serum, penicillin-G and streptomycin (200 units/ml and 200 μg/ml), 2 mM L-glutamine and 35 mM glucose. Cells were plated at a density of 10^6 per ml in plating medium on glass cover-slips previously coated with poly-D-lysine. The neurons were grown and maintained at 37 °C in a humidified 95% air/5% CO2 atmosphere.
In addition, low concentrations of fluorophore-conjugated α-Bgtx can also be used to avoid labelling of GABAARs as the affinity of α-Bgtx for endogenous GABAARs is lower compared to that for the BBS. […] Similarly, the over-expression of recombinant receptors in heterologous expression systems (HEK-293 cells) allows the detection of α-Bgtx fluorescence at low concentrations.

## α-Bgtx-AF555: α-Bgtx coupled to Alexa-Fluor 555 (Life Technologies)
[1]
  labelling with α-BgTx-AF555: did not show any labelling
[2]
  staining intensity (cell surface fluorescence): 592 ± 46 a.u.
[3]
  staining intensity (cell surface fluorescence): 324 ± 33 a.u.
[4]
  mean cell surface fluorescence intensity: 1057 ± 64 a.u.
[5]
  mean cell surface fluorescence intensity: 1294 a.u.
[6]
  staining intensity (cell surface fluorescence): 90 ± 64 a.u.
[7]
  staining intensity (cell surface fluorescence): 64 ± 56 a.u.
[8]
  mean cell surface fluorescence intensity: 9 ± 4 a.u.
[9]
  cell surface and intracellular staining: absent
[10]
  cell surface and intracellular staining: absent
[11]
  cell surface and intracellular staining: high levels of cell surface and intracellular staining
[12]
  binding of fluorescent α-Bgtx: do not observe any binding
